Measured values reported in patent US20230183305A1, “KERATIN BD-11, PREPARATION METHOD THEREFOR AND PHARMACEUTICAL COMPOSITION AND USE THEREOF” (INSTITUTE OF MATERIA MEDICA, CHINESE ACADEMY OF MEDICAL …, priority 2019, published 2023).

Test system: ammonia water induced cough in ICR mice
Experiment: Antitussive test, cough induced by ammonia water in mice
Format: in vivo, mouse
Conditions: for Incubation period (cough): 10% ammonia water 10 s; for Incubation period (cough) / Number of coughs: X±SEM, n=9; for Number of coughs: within 2 minutes
Method: • Animals: male ICR mice; • Drugs and reagents: dextromethorphan hydrobromide, ammonia water, 0.2% CMC-Na, protein BD-11; • Apparatus: Compressed nebulizer (403T type), balance (XS105DU type).
Experiment grouping: • Solvent control group; • Dextromethorphan 15 mg/kg group; • Protein BD-11, 20 mg/kg group, 50 mg/kg group.
Dextromethorphan and different doses of protein BD-11 (administration volume 10 ml/kg) were given orally in groups, and the solvent control group was given the same volume of distilled water. One hour later, mice were put into a sealed box and atomized 10% ammonia water for 10 seconds, and then observed and recorded the incubation period of cough in mice and the number of coughs in 2 minutes.
Record the time point of oral administration, the time point of atomization experiment, the incubation period of mice cough and the number of coughs within 2 minutes, respectively. The incubation period of cough refers to the number of seconds from the start of the atomization of ammonia to the occurrence of cough. The performance of coughing in mice is based on contraction of their abdominal muscles (breast contraction) and opening their mouths at the same time. Calculate the mean and standard error of each group of data, and use TTEST to compare the model group with other groups, and P<0.05 is considered as a significant difference.
Give dextromethorphan (15 mg/kg) and different doses of protein BD-11 (20 mg/kg, 50 mg/kg) in advance, One hour later, the mice were put into a sealed box and atomized 10% ammonia water for 10 seconds, and then the mice were observed and recorded the incubation period of coughing and the number of coughs within 2 minutes.

[1] = BD-11 50 mg/kg dose group, P<0.05

B1: BD-11: recombinant keratin, amino acid sequence SEQ ID NO:1, expressed in E. coli, band around 59 kD; Example 4 batch tested (protein, listed as Bos taurus)
chain: MSRQSTITFQTSSRRGFSTASATTPATSRSRFSSASVTHSPAGSGGLGRISGFGSRSLYNLGGTKRVSISGCGSNFRSGFGGRASSGFGVSGGFGYGGGIGGGHGGCGFSVCPPGGIQEVTVNQSLLTPLNLQIDPNIQRVRKEEREQIKTLNNKFASFIDKVRFLEQQNKVLETKWSLLQEQGTRTVRQSLEPFFEAYITDLRRQLDSITTERGRLDAELRTMQDVVEDFKVRYEDEINKRTAAENEFVALKKDVDAAYLNKVDLEAKANSLTDEINFLQMLFEAELCQMQTRVSDTSVVLSMDNNRSLDLDSIIAEVKAQYEEIANRSRAEAESWYQTKYEELQVTAGQHGDDLRNTKQEISETNRMIQRLRAEIDNVKKQCASLQTAIADAEQRGELALKDARAKLVDLEEALQKSKQDMARLLREYQELMNIKLALDVEIATYRKLLEGEECRLSGEGVSPVNISVVTSTVSSGYGGGSSIGSGSLGLSGGSGCSFMTSGGHSLGGSSFSNSSSRGLGGSGSSFKFVSTTSSSRKSYKH
BD-11 20 mg/kg oral
  Incubation period (cough): 30.0 ± 3.2 s
  Number of coughs: 61.8±4.7
[1]
  Cough incubation period vs solvent control group: significant improvement
  Number of coughs vs solvent control group: significant improvement effect
BD-11 50 mg/kg oral
  Incubation period (cough): 35.8 ± 2.0 s
  Number of coughs: 50.0±4.6
Dose not given
  Effect on cough incubation period (summary): prolong the incubation period
  Effect on number of coughs (summary): significantly reduce the number of coughs
